# Assay results taken from patent publication US20090042786A1.
# Molecular target: human Factor X activated (human) (UniProt P00742)
# Experiment: cell-based or functional assay
# Sequence of UniProt P00742 (P00742 235-488 limits assumed): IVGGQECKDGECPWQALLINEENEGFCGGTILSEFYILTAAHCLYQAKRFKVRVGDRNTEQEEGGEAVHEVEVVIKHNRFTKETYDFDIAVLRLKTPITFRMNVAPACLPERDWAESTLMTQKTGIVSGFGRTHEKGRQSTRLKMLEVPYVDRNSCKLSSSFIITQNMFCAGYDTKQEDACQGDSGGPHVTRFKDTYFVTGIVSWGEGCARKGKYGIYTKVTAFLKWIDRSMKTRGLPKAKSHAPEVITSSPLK
substance,measurement,value
Amblyomin-X recombinant protein,inhibition of the amidolytic activity of human Factor X activated (dose at which inhibition is seen),5 to 10 µM
